Experimental data as given in the DeepSol protein solubility set.

assay: soluble on expression in E. coli; label from the status in PepcDB or PDB records

Sequence | soluble on expression in E. coli
MGSDKIHHHHHHLDGQALKQAVTPYFAGVLHEGLSRLKAEVYQEMEEIRLRAAQPLLLKIGESEWGLTSRGELTKKLPEAINASREDLYRTIASISDNSLYALEEEIRRGFITIPGGHRVGLAGQVIVQAAGIKGIKEFSSICFRLAREKKGCARTILPHIISTGTIVNTLIISPPRCGKTTILRDIARSISTGSSACPPHNIAIIDERSEIAGTHRGLAQLDVGIRSDVLDACPKSWGMMMAIRSLSPQVLIADEIGRKEDVEALQECVNAGVAVICSIHARNLEELSKRPLIKKLLSQGAFRLGVVLSRRNGPGTVEEIIRWD | not soluble
GSARPKLRVVTLVEHPFVFTRESDEDGQCPAGQLCLDPGTNDSARLDALFAALVNGSVPRTLRRCCYGYCIDLLERLAEDLAFDFELYIVGDGKYGALRDGRWTGLVGDLLAGRAHMAVTSFSINSARSQVVDFTSPFFSTSLGIMVRTRGTELSGIHDPKLHHPSQGFRFGTVWESSAEAYIKASFPEMHAHMRRHSAPTTPHGVAMLTSDPPKLNAFIMDKSLLDYEVSIDADCKLLTVGKPFAIEGYGIGLPQNSPLTSNLSEFISRYKSSGFIDLLHDKWYKMVPCGK | soluble
MGSDKIHHHHHHMQMFCYQCSQTANGTGCTEYGVCGKSPTVARLQDNLVFAIKGISAYYYHARELGYDDPEIAGFLDEALYSTLTNVNFDAQSFVEYALEAGRMNLKAMQLLKKAHIETYGEPTPVEVETGTKKGKGIIVTGHNLKALEELLKQVEGTNVYVYTHSEMLPAHGYPGLRKYKNLIGNLGKAWYDQRKLFAEYPVAILGTSNCVLIPSESYRDRMFTTSIARLPGVKHIDGYDYTEVIEKAKSLPDLEEKPGSYKLRTGFSTSVVVSLADKIKELVEAGKIKHFLVVGGCDVPFKRNEYYREFVQKLPKETVVITLACGKFRINDLDLGDIDGIPRLIDVGQCNDTIVAIEIAQALAKVFGVEVTELPLTLVLTWMEQKAVAILWTLLALGLKNIYVGPVLPAWVNEDILKVLTAEFGLKTISEP | not soluble
MSLRKVRVGIWGFGAMGIGMANMILKKEGIEIVSVCSRSTSGKSMYDVLGIERGERPEVIINKNYEEVFREKSVDVVLLATDSFTKKAFDKIIFLLNRKINVISTAEQMAYPQADDADLAKKMDEVAKENGVSILGTGINPGFVLDLLVLALSGTCEEVTSIKAKRVNDLSPFGKSVMVEQGVGVTREEFIKGVEDKTIAGHVGFVESINMIADGLGWKLDKIEQTKEPIMTTVDRKSKYGEALAGNVAGCRQCGYGYVNGEVLIEMEHPQQIIPEAEGIKTGDYVSIKGIPNIDLQINPEIPGGVGTYAMIVNSIPLIINARPGLKTMLDIPVPRAIMGDIRNQIEVELEEEGHHHHHH | soluble
SGLYRIRVSTGASLYAGSNNQVQLWLVGQHGEAALGKRLWPARGKETELKVEVPEYLGPLLFVKLRKRHLLKDDAWFCNWISVQGPGAGDEVRFPCYRWVEGNGVLSLPEGTGRTVGEDPQGLFQKHREEELEERRKLYRWGNWKDGLILNMAGAKLYDLPVDERFLEDKRVDFEVSLAKGLADLAIKDSLNVLTCWKDLDDFNRIFWCGQSKLAERVRDSWKEDALFGYQFLNGANPVVLRRSAHLPARLVFPPGMEELQAQLEKELEGGTLFEADFSLLDGIKANVILCSQQHLAAPLVMLKLQPDGKLLPMVIQLQLPRTGSPPPPLFLPTDPPMAWLLAKCWVRSSDFQLHELQSHLLRGHLMAEVIVVATMRCLPSIHPIFKLIIPHLRYTLEINVRARTGLVSDMGIFDQIMSTGGGGHVQLLKQAGAFLTYSSFCPPDDLADRGLLGVKSSFYAQDALRLWEIIYRYVEGIVSLHYKTDVAVKDDPELQTWCREITEIGLQGAQDRGFPVSLQARDQVCHFVTMCIFTCTGQHASVHLGQLDWYSWVPNAPCTMRLPPPTTKDATLETVMATLPNFHQASLQMSITWQLGRRQPVMVAVGQHEEEYFSGPEPKAVLKKFREELAALDKEIEIRNAKLDMPYEYLRPSVVENSVAI | soluble
ADDAKPRVKVPSSAKAGETVTVKALISHKMESGQRKDADGKLIPRSIINRFTCELNGVNVVDVAIDPAVSTNPYFEFDAKVDAAGEFKFTWYDDDGSVYEDVKPIAVA | soluble
MQKVRSDIMTHRGSHYDLGVKTALWLQTTPLLKNRNKEWRKRIPRFDIDVKETYDIFQIYSPQIWEEIIGMQDVLNLPTKQMILNFGHYRFTDLKDSGCTVYKGRDFLVRNYDYHPATYDGRYLLFQPNDGGLSQIGPTSRVTGRMDGMNEYGLVMAYNFMHRKKPANGFVCYMVGRLILENCKNVTEAIKFLKEVPHRSSFSYILMDRHSNYAIVEVTPRSIDVRYEHICTNHFELLTHENRNYTRESKERLNRVINKTTPSTNKDIAFKLFNDPQYEIYSNLFKSWSGTIHTSLYEPNSLIAWMALGQNSHPTSINFSNWLKGKKLNINYFEGEIDTPLTFATYLEHHHHHH | not soluble
SLEEKVRPCIDLIDSLRALGVEQDLALPAIAVIGDQSSGKSSVLEALSGVALPRGSGIVTRCPLVLKLKKLVNEDKWRGKVSYQDYEIEISDASEVEKEINKAQNAIAGEGMGISHELITLEISSRDVPDLTLIDLPGITRVAVGNQPADIGYKIKTLIKKYIQRQETISLVVVPSNVDIATTEALSMAQEVDPEGDRTIGILTKPDLVDKGTEDKVVDVVRNLVFHLKKGYMIVKCRGQQEIQDQLSLSEALQREKIFFENHPYFRDLLEEGKATVPCLAEKLTSELITHICKSLPLLENQIKETHQRITEELQKYGVDIPEDENEKMFFLIDKINAFNQDITALMQGEETVGEEDIRLFTRLRHEFHKWSTIIENNFQEGHKILSRKIQKFENQYRGRELPGFVNYRTFETIVKQQIKALEEPAVDMLHTVTDMVRLAFTDVSIKNFEEFFNLHRTAKSKIEDIRAEQEREGEKLIRLHFQMEQIVYCQDQVYRGALQKVREKELEEEKKKKSWDFGAFQSSSATDSSMEEIFQHLMAYHQEASKRISSHIPLIIQFFMLQTYGQQLQKAMLQLLQDKDTYSWLLKERSDTSDKRKFLKERLARLTQARRRLAQFPGEG | not soluble
MSLEGRSRLWPKTSAPGAFSRRSPERSWPSRRVQRHFPAKEGREAASAAALRASRRSMVGLTVAVRTGPCDLATRKTKSRWATGSDMTKSSKATSLEILACDAGWRNYHFVKLTTDDGIVGWSEFDEGFGSPGVGAAIQRLSTRIIGQNIFQHERIYAELFAATRPAAGGVVAQALGAIENAMLDAKAKCLGVPCYELLGGKIRDRVRVYWSHCATWRINHPSWYKPPIESLDGVKAMGREVREKKFTALKTNIFSYDDGKPTGWRPGFGSPFAPEINVDRKILRDLRMHLEAIRDGAGPDVDILLDCNFNAKTEGYLKILRTIADLDMFWIEIDSFNPEALGYIRRQSPHPISSCETLLGLREFLPYFHEQAMDVAIIDTPWNGVWQSMKIASAAEAFEVNVAPHNFYGHLCSMMNAHFCAAVPNLRIMEIDIDRLSWDRELFTHEPEIEDGHLIIPDRPGWGTEPNEEALRAHPPKTNGGLLNYGRKSEGHHHHHH | not soluble
MAHHHHHHMRSLPNIIVTGVPGVGKTTLCEELVEVINKELQEGQQAEPANQMKHLNLSKVIKEERLYEEFDDQLDATIYSNDMVNEKMEKLKLENGGYIIDFHDVDFLEQKELIDHIFLLTTSTNKLYERLEKRNYAKEKIKNNIECEIFQVIKEDILTFYNDPSIFDELGNNDMEQYESNLQLIKGWVLSWAKSGEALPR | soluble
FEHVLVFAPTGSGKTRSIGIPNLFNYPYSVVCNDVKLTLFRTTSGYRERVLGHRCFCWAPADENRITHCYNPLSLISEDKIQRLTDIQRIAHILMPDNKKSDPIWQQASRKLFKVAVLYLLDTPERPTTLGEINRLVKQAGFDDWLASVLEETNHLDPEFYRNGYSYLNNHEKTRSSILETFSGYFELFDDPTIDAATARSDFDLRQLRREKITIYIGFTDDDMERLSPLLTLFWQQLISVMIKNIPDPVDEPYPLLCLIDEFSSLGRIERLRRSLKLLREYRVRCVLIMQYIAQTYEQYTHDEAKAFTNIKTKIAFATEDIFDAEYVSKLLGTRTVKVSAGSTSTQTQGYSESKSYNYQAIPLLRPDEVMRLPEDQTLIMRTGHAPVKAEQMVWY | not soluble
MPIPLYLQDWWLDAVCGFDEWMAFVLEEEGTVSGVMPCYMPVPGHISMPPFTQFLGSYSFIGINEDSTTSFRAHRRVHDMLRSMLPPHKSFMVQYSKDFTDWLPYYWQGYSQTTRYTYRIDLSPGIDVVRMAIRPDAMKKIRKAERDGLRCTSATVDDLLRLCRISMSRQEAKGFAAETLQRLAEVAIERHAGEIVGCEDSEGRLLAAVFLAHDHNTAYTIASGQIREGQGRNAGAFVLYEAIWRACEMEGIHTFDFEGSMLEGIEGFFRSFGGIQTPYFRLSKGRIGLYGRLRRKWRAFHDTGQQKQV | not soluble
MGSSHHHHHHSSGLVPRGSHMFANDATFEIKKCDLHRLEEGPPVTTVLTREDGLKYYRMMQTVRRMELKADQLYKQKIIRGFCHLCDGQEACCVGLEAGINPTDHLITAYRAHGFTFTRGLSVREILAELTGRKGGCAKGKGGSMHMYAKNFYGGNGIVGAQVPLGAGIALACKYNGKDEVCLTLYGDGAANQGQIFEAYNMAALWKLPCIFICENNRYGMGTSVERAAASTDYYKRGDFIPGLRVDGMDILCVREATRFAAAYCRSGKGPILMELQTYRYHGHSMSDPGVSYRTREEIQEVRSKSDPIMLLKDRMVNSNLASVEELKEIDVEVRKEIEDAAQFATADPEPPLEELGYHIYSSDPPFEVRGANQWIKFKSVS | soluble
MAMPEIDALLGLSFCLYFFDNKQHKLPHIHVKYGSYELIIAIETGECLEGYLPNKQRKRAENHILEHREQLMVMWNKAVNGENPGKLGDLCLEHHHHHH | not soluble
YTVEPVQDGERSVTLRRAGGTPLVAAMYHLPAAGSPDFVGLDLAATILADTPSGRLYHALVPTKLASGVFGFTMDQLDPGLAMFGAQLQPGMDQDKALQTLTATLESLSSKPFSQEELERARSKWLTAWQQTYADPEKVGVALSEAIASGDWRLFFLQRDRVRDAKLDDVQRAAVAYLVRSNRTEGRYIPTEKPQRAPLAQR | not soluble
STKLTGYVWDGCAASGMKLSSVAIMARLADFSNDEGVCWPSIETIARQIGAGMSTVRTAIARLEAEGWLTRKARRQGDGSSPHCAVVDEYHEHATDALYTTMLTGMGARRQPLMWAITTAGYNIEGPCYDKRREVIEMLNGSVPNDELFGIIYTVDEGDDWTDPQVLEKANPNIGVSVYREFLLSQQQRAKNNARLANVFKTKHLNIWASARSAYFNLVSWQSCEDKSLTLEQFEGQPCILAFDLARKLDMNSMARLYTREIDGKTHYYSVAPRFWVPYDTVYSVEKNEDRRTAERFQKWVEMGVLTVTDGAEVDYRYILEEAKAANKISPVSESPIDPFGATGLSHDLADEDLNPVTIIQNYTNMSDPMKELEAAIESGRFHHDGNPIMTWCIGNVVGKTIPGNDDVVKPVKEQAENKIDGAVALIMAVGRAMLYEKEDTLSDHIESYGIRSL | soluble
SGNLLKVLTCTDLEQGPNFFLDFENAQPTESEKEIYNQVNVVLKDAEGILEDLQSYRGAGHEIREAIQHPADEKLQEKAWGAVVPLVGKLKKFYEFSQRLEAALRGLLGALTSTPYSPTQHLEREQALAKQFAEILHFTLRFDELKMTNPAIQNDFSYYRRTLSRMRINNVPAEGENEVNNELANRMSLFYAEATPMLKTLSDATTKFVSENKNLPIENTTDCLSTMASVCRVMLETPEYRSRFTNEETVSFCLRVMVGVIILYDHVHPVGAFAKTSKIDMKGCIKVLKDQPPNSVEGLLNALRYTTKHLNDETTSKQIKSMLQ | soluble
